Data: the supplement of paper PMC10567573

B1: HDAC6 (parent)
chain: DLMETTQYMNEGELRVLADTYDSV
B2: USP39 (parent)
chain: TLSEAYIQIWKRRDNDETNQQGA

Variants of: B1
Assay: protein stability index of a GFP-peptide fusion (GPS, HEK-293T) (PSI 1-6); higher = more stable
Details: c terminus: a fixed tail appended
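Note: lentivirally expressed fusions sorted by FACS into six bins by GFP to DsRed ratio, PSI derived from sequencing read proportions per bin multiplied by bin number.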

Protein stability index, by site and new letter:
T20: I 2.91; K 1.96; Q 2.58; P 1.99; L 1.04
E4: H 2.18; F 1.48; W 1.5
N10: F 1.05; P 4.49; D 3.95; G 3.14; M 4.08; H 2.57
L14: G 2.92; I 2.26; N 3.03; P 4.29
L2: R 4.52; K 4.96
Q7: D 2.35
R15: N 2.67; F 2.64; C 1.5; A 1.77; M 1.89; S 2.09
E11: P 3.65; S 2.95; T 2.9
L17: Y 1.99; N 4.55
E13: G 4.06; W 2.32
S23: H 2.37; N 2.66; W 3.46
A18: N 1.65; H 2.06; C 2.47; D 2.82
V16: K 3.91; Y 3.9; H 4.62; T 4.2
V24: Q 1.84; N 2.77
D1: C 2.48; L 2.05; T 2.27; Y 2.04; G 3.06; H 1.53
M3: C 1.69; T 3.15
Y8: S 5.09; F 1.65; E 4.21; P 5.51; R 3.66; K 4.56
Y21: F 2.24
M9: C 4.25; N 4.12
G12: N 4.08; Y 2.62
D19: R 2.56; E 2.03
D22: E 1.57; H 2
T5: W 1.61; F 2.03

Variants of: B2
Assay: as above
Details: c terminus: native

Protein stability index: each site, then its substitutions
A23: K 4.54; T 3.73; C 3.53; D 4.15; E 4.22; S 3.94; H 4.18; Y 3.58; W 2.94; L 3.89; V 4.23; Q 4.5; R 2.59; I 3.76; M 4.35; N 4.51; F 3.71; P 4.07
D16: L 2.61; C 2.54; I 1.95; K 2.32; G 1.65; R 1.66; W 3.13; P 1.29; Q 2.22; E 2.14; A 2.1; Y 2.9; H 1.63; F 1.51; M 2.93; S 2.22; N 2.67; T 1.98
R13: P 2.46; L 1.84; M 2.14; Q 4.3; S 2.07; G 1.93; F 1.48; V 1.97; I 2.52; E 2.63; N 2.37; K 2.05; Y 1.56; C 2.06; D 3.22; H 2.43; T 2.36
I9: W 1.73; V 2.67; Y 3.19; T 2.7
G22: C 2.83; A 3.77; Q 4.13; L 3.26; N 4.12; T 3.66; Y 3.04; F 3; M 3.1; H 3.63; V 3.41; E 4.79; W 2.45; S 3.82; R 2.83; I 3.35; D 3.84; K 4.09; P 3.05
N19: K 2.77; Y 3.5; E 3.9; R 2.37; G 3.69; L 1.79; D 4.38; Q 2.85; F 2.99; S 2.9; T 3.51; P 1.45; M 2.06; H 2.75; V 2.32; W 2.61; C 2.1; A 2.38
R12: I 3.09; Q 2.87; P 2.07; E 2.65; M 2.1; K 2.89; W 1.18; V 1.86; Y 1.81; S 2.53; D 3.2; H 1.96; N 3.13; G 3.15; F 2.61; T 2.65; A 2.15; C 2; L 1.98
N15: T 1.88; W 2.36; D 3.03; S 1.88; L 1.92; C 2.31; Y 1.28; F 2.24; I 2.53; Q 2.01; V 2.12; R 2.24; P 1.77; M 1.86; G 2.68; A 2.38; E 3.18; K 2.51; H 3.1
T18: W 2.11; N 2.41; I 3.17; C 1.69; P 1.87; Y 2.51; K 3.63; F 1.73; E 2.56; D 1.95; A 3.05; S 1.89; H 3.19; M 1.43; R 2.54; L 2.06; Q 1.61; G 2.57; V 2.56
K11: I 2.21; G 2.39; E 1.92; N 2.41; T 3.14; Q 1.78; C 3.3; P 1.72; S 3.78; Y 1.44; L 2.32; D 1.58; M 2.63; F 2.04; V 1.67; R 1.86; H 1.88; A 1.74
D14: Q 2.12; V 2.9; S 1.94; I 2.6; F 2; R 2.74; W 1.94; A 2.1; H 2.19; Y 1.9; L 1.94; M 2.01; T 2.39; G 2.06; E 2.07; N 1.71; P 2.37; C 2.08; K 2.67
Q20: F 2.02; H 1.58; Y 2.4; V 1.73; P 1; G 2.68; N 3.41; E 2.15; L 2.02; I 1.74; D 2.37; M 3.46; K 2.14; S 4.26; R 2.35; C 2.38; T 3.77; A 2.51; W 2.17
E17: L 1.71; Q 1.55; P 2.4; W 2.35; K 1.72; C 2.33; N 1.77; Y 1.87; R 1.63; D 2.79; V 1.5; F 1.99; H 1.6; I 1.93; T 1.9; A 1.8; G 2.66
Q21: G 2.52; H 2.05; L 2.09; P 4.25; F 1.79; I 2.66; C 1.76; A 2.96; K 3.59; W 1.84; Y 2.43; D 2.74; V 1.96; S 2.96; N 3.81; T 3.59; R 1.53; E 2.87; M 1.8
W10: C 2.45; F 2.78; D 3.97; S 3.19; V 3.58; T 2.92; E 3.69; Y 2.53; P 3.41; H 2.9; N 2.85; G 3.27; Q 3.46; A 3.39; R 3.49; K 3.23; I 2.72; L 2.96; M 2.5
